Common to all, as to assay: pull-down
For assay [1], the target named is His6-Spx F113A (Bacillus subtilis) (UniProt O31602).
For assay [2], the target named is His6-Spx L114A (Bacillus subtilis) (UniProt O31602).
Assay [3] has as its target His6-Spx R112A (Bacillus subtilis) (UniProt O31602).

The text below walks through data of article PMC4128009.

For the substance “Geobacillus thermodenitrificans YjbH (GtYjbH), without tag (natural protein)”, the decrease of YjbH binding compared to the WT was determined as 80% in assay [1], 50% in assay [2] and 80% in assay [3].
